{
  "source": "paper PMC6759063",
  "about": "(Oncogene, 2008)",
  "binders": {"B1": {"name": "14-3-3ζ (natural protein, human (endogenous in HK18), UniProt P63104 1-245, looked up)", "chain": "MDKNELVQKAKLAEQAERYDDMAACMKSVTEQGAELSNEERNLLSVAYKNVVGARRSSWRVVSSIEQKTEGAEKKQQMAREYREKIETELRDICNDVLSLLEKFLIPNASQAESKVFYLKMKGDYYRYLAEVAAGDDKKGIVDQSQQAYQEAFEISKKEMQPTHPIRLGLALNFSVFYYEILNSPEKACSLAKTAFDEAIAELDTLSEESYKDSTLIMQLLRDNLTLWTSDTQGDEAEAGEGGEN"}},
  "molecular_target": "cyclin D1 (human (endogenous in HK18), UniProt P24385 1-295)",
  "sequence (P24385 whole entry)": "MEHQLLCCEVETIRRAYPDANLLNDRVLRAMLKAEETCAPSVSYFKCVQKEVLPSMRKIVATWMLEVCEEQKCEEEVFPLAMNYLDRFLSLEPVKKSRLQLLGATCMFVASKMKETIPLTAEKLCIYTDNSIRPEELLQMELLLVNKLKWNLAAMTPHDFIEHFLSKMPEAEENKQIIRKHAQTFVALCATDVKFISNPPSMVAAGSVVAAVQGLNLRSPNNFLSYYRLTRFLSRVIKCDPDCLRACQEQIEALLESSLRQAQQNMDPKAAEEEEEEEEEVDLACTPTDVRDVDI",
  "test": "co-IP",
  "data": [
    {"binder": "B1", "values": [
      {"measurement": "fold decrease of the co-precipitated complex after LDIR (densitometry)", "value": "~50", "unit": "times"}
    ]}
  ]
}
